Measured values as given in US20060252677A1.
Several values for one entry are separate records, joined by “and”; a condition that tells them apart may be missing. Equal entries are not always repeated.

Target: T1, Protein-X (novel PSD) expressed from injected RNA in Xenopus oocytes (human) (UniProt Q5T2T1)
T1 sequence: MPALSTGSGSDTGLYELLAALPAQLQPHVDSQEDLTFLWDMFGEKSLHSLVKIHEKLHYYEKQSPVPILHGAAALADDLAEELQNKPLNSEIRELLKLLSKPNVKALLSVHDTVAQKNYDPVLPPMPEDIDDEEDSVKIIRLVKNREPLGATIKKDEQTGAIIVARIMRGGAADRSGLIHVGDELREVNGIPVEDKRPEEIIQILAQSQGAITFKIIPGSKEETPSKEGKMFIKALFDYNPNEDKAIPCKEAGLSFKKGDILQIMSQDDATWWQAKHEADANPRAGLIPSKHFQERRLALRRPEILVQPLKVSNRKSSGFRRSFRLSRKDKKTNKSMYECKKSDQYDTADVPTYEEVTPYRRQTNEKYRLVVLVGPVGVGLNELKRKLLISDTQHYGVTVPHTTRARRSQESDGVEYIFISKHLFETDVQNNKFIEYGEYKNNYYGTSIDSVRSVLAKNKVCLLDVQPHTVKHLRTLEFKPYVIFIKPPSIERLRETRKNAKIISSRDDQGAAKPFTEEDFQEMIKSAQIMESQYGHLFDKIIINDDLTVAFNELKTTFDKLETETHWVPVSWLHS
Assay: cell-based or functional assay

- current response to the ligand stimulation of the NMDA receptor in oocytes, against Protein-X alone: 7 times and 8 times
B1: PJ01087 protein (Protein-Y) expressed from injected RNA in Xenopus oocytes (protein)
chain: MRGYHGDRGSHPRPARFADQQHMDVGPAARAPYLLGSREAFSTEPRFCAPRAGLGHISPEGPLSLSEGPSVGPEGGPAGAGVGGGSSTFPRMYPGQGPFDTCEDCVGHPQGKGAPRLPPTLLDQFEKQLPVQQDGFHTLPYQRGPAGAGPGPAPGTGTAPEPRSESPSRIRHLVHSVQKLFAKSHSLEAPGKRDYNGPKAEGRGGSGGDSYPGPGSGGPHTSHHHHHHHHHHHHQSRHGKRSKSKDRKGDGRHQAKSTGWWSSDDNLDSDSGFLAGGRPPGEPGGPFCLEGPDGSYRDLSFKGRSGGSEGRCLACTGMSMSLDGQSVKRSAWHTMMVSQGRDGYPGAGPGKGLLGPETKAKARTYHYLQVPQDDWGGYPTGGKDGEIPCRRMRSGSYIKAMGDEESGDSDGSPKTSPKAVARRFTTRRSSSVDQARINCCVPPRIHPRSSIPGYSRSLTTGQLSDELNQQLEAVCGSVFGELESQAVDALDLPGCFRMRSHSYLRAIQAGCSQDDDCLPLLATPAAVSGRPGSSFNFRKAPPPIPPGSQAPPRISITAQSSTDSAHESFTAAEGPARRCSSADGLDGPAMGARTLELAPVPPRASPKPPTLIIKTIPGREELRSLARQRKWRPSIGVQVETISDSDTENRSRREFHSIGVQVEEDKRRARFKRSNSVTAGVQADLELEGLAGLATVATEDKALQFGRSFQRHASEPQPGPRAPTYSVFRTVHTQGQWAYREGYPLPYEPPATDGSPGPAPAPTPGPGAGRRDSWIERGSRSLPDSGRASPCPRDGEWFIKMLRAEVEKLEHWCQQMEREAEDYELPEEILEKIRSAVGSTQLLLSQKVQQFFRLCQQSMDPTAFPVPTFQDLAGFWDLLQLSIEDVTLKFLELQQLKANSWKLLEPKEEKKVPPPIPKKPLRGRGVPVKERSLDSVDRQRQEARKRLLAAKRAASFRHSSATESADSIEIYIPEAQTRL
